Source: patent publication US10702592B2, “Peptides and combination of peptides for use in immunotherapy against NHL and other cancers” (Immatics Biotechnologies GmbH, priority 2016, dated 2020)

Molecular target: HLA-A*02:01 (Homo sapiens, UniProt P04439, D140Y/D185E/D98H/E176V/E277Q/G131W/G231S/I119V/I121R/I166T/I218V/L300P/L318F/N151K/N90K/P208A/P217A/Q86G/Q94H/R138H/R169H/T345S)
Assay: MHC binding assay (UV-ligand exchange, beta2m ELISA)
Settings: binding to HLA-A*02:01, UV-ligand exchange
Procedure, shortened: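 Exchange yield is an ELISA read-out: complexes diluted 100-fold, captured on streptavidin plates, detected with HRP anti-β2m and TMB at 450 nm. Standard curve from refolded HLA-A*02:01/MLA-001 (15-500 ng/ml); complexes made by UV-triggered displacement of a photolabile ligand by test peptide.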

“250 (VLTNVGAAL; listed as Homo sapiens) [compound 250]” was tested. Which “Peptide exchange (MHC class I binding score, peptide exchange yield)” value (“Peptide exchange” for short) did it give?
Its value is ““+++” (≥50 = +++)”.

Which “Peptide exchange” value does the source give for “251 (VLYELFTYI; listed as Homo sapiens) [compound 251]” here?
Its value is ““+++” (≥50 = +++)”.

“252 (YLGDLIMAL; listed as Homo sapiens) [compound 252]” was tested. Which “Peptide exchange” value did it give?
Its value is ““+++” (≥50 = +++)”.

“255 (GMWNPNAPVFL; listed as Homo sapiens) [compound 255]” was tested. Which “Peptide exchange” value did it give?
Its value is ““++++” (≥75% = ++++)”.

With “257 (FLQEWEVYA; listed as Homo sapiens) [compound 257]” as the substance, how does the “Peptide exchange” value read?
The value was ““++++” (≥75% = ++++)”.

“259 (TVLDGLEFKV; listed as Homo sapiens) [compound 259]” was tested. Which “Peptide exchange” value did it give?
Its value is ““++++” (≥75% = ++++)”.

Which “Peptide exchange” value does the source give for “263 (GLMDNEIKV; listed as Homo sapiens) [compound 263]” here?
The value was ““+++” (≥50 = +++)”.

How did the “Peptide exchange” value turn out when “264 (ILTGTPPGV; listed as Homo sapiens) [compound 264]” was run?
Its value is ““+++” (≥50 = +++)”.

“265 (ILWHFVASL; listed as Homo sapiens) [compound 265]” was tested. Which “Peptide exchange” value did it give?
Its value is ““++++” (≥75% = ++++)”.

“266 (QLTEMLPSI; listed as Homo sapiens) [compound 266]” was tested. Which “Peptide exchange” value did it give?
The value was ““++++” (≥75% = ++++)”.

Which “Peptide exchange” value does the source give for “267 (SLLETGSDLLL; listed as Homo sapiens) [compound 267]” here?
The value was ““+++” (≥50 = +++)”.

Which “Peptide exchange” value does the source give for “268 (VLFPLPTPL; listed as Homo sapiens) [compound 268]” here?
Its value is ““++++” (≥75% = ++++)”.

Which “Peptide exchange” value does the source give for “269 (VLQNVAFSV; listed as Homo sapiens) [compound 269]” here?
The value was ““++++” (≥75% = ++++)”.

For “270 (VVVDSDSLAFV; listed as Homo sapiens) [compound 270]”, which “Peptide exchange” value is on record?
The value was ““++++” (≥75% = ++++)”.

With “271 (YLLDQPVLEQRL; listed as Homo sapiens) [compound 271]” as the substance, how does the “Peptide exchange” value read?
The value was ““++++” (≥75% = ++++)”.

“272 (KLDHTLSQI; listed as Homo sapiens) [compound 272]” was tested. Which “Peptide exchange” value did it give?
The value was ““++++” (≥75% = ++++)”.

With “273 (AILLPQPPK; listed as Homo sapiens) [compound 273]” as the substance, how does the “Peptide exchange” value read?
The value was ““++” (≥20% = ++)”.

“274 (KLLNLISKL; listed as Homo sapiens) [compound 274]” was tested. Which “Peptide exchange” value did it give?
Its value is ““++++” (≥75% = ++++)”.

With “275 (KLMDLEDCAL; listed as Homo sapiens) [compound 275]” as the substance, how does the “Peptide exchange” value read?
The value was ““++++” (≥75% = ++++)”.

For “276 (NMISYVVHL; listed as Homo sapiens) [compound 276]”, which “Peptide exchange” value is on record?
Its value is ““++” (≥20% = ++)”.

For “277 (FLIDLNSTHGTFL; listed as Homo sapiens) [compound 277]”, which “Peptide exchange” value is on record?
The value was ““+++” (≥50 = +++)”.

“278 (FLLFINHRL; listed as Homo sapiens) [compound 278]” was tested. Which “Peptide exchange” value did it give?
Its value is ““+++” (≥50 = +++)”.

How did the “Peptide exchange” value turn out when “279 (NLAGENILNPL; listed as Homo sapiens) [compound 279]” was run?
Its value is ““+++” (≥50 = +++)”.

Which “Peptide exchange” value does the source give for “280 (SLLNHLPYL; listed as Homo sapiens) [compound 280]” here?
Its value is ““++++” (≥75% = ++++)”.

How did the “Peptide exchange” value turn out when “281 (TLQTVPLTTV; listed as Homo sapiens) [compound 281]” was run?
Its value is ““++++” (≥75% = ++++)”.

With “282 (YLLEQGAQV; listed as Homo sapiens) [compound 282]” as the substance, how does the “Peptide exchange” value read?
Its value is ““++++” (≥75% = ++++)”.

Which “Peptide exchange” value does the source give for “283 (ALMPVTPQA; listed as Homo sapiens) [compound 283]” here?
Its value is ““+++” (≥50 = +++)”.

For “284 (KLQEQIHRV; listed as Homo sapiens) [compound 284]”, which “Peptide exchange” value is on record?
The value was ““+++” (≥50 = +++)”.

Which “Peptide exchange” value does the source give for “285 (SITAVTPLL; listed as Homo sapiens) [compound 285]” here?
Its value is ““+++” (≥50 = +++)”.

With “286 (HLTEDTPKV; listed as Homo sapiens) [compound 286]” as the substance, how does the “Peptide exchange” value read?
The value was ““+++” (≥50 = +++)”.

How did the “Peptide exchange” value turn out when “287 (ILMGHSLYM; listed as Homo sapiens) [compound 287]” was run?
The value was ““++++” (≥75% = ++++)”.

With “288 (RLAPEIVSA; listed as Homo sapiens) [compound 288]” as the substance, how does the “Peptide exchange” value read?
The value was ““+++” (≥50 = +++)”.

Which “Peptide exchange” value does the source give for “289 (SLLAANNLL; listed as Homo sapiens) [compound 289]” here?
Its value is ““++++” (≥75% = ++++)”.

For “290 (IASPVIAAV; listed as Homo sapiens) [compound 290]”, which “Peptide exchange” value is on record?
Its value is ““+++” (≥50 = +++)”.

Which “Peptide exchange” value does the source give for “291 (KIIDTAGLSEA; listed as Homo sapiens) [compound 291]” here?
The value was ““+++” (≥50 = +++)”.

How did the “Peptide exchange” value turn out when “292 (KLINSQISL; listed as Homo sapiens) [compound 292]” was run?
Its value is ““+++” (≥50 = +++)”.

With “293 (GLAMVEAISYV; listed as Homo sapiens) [compound 293]” as the substance, how does the “Peptide exchange” value read?
The value was ““++++” (≥75% = ++++)”.

“294 (KLYGPEGLELV; listed as Homo sapiens) [compound 294]” was tested. Which “Peptide exchange” value did it give?
The value was ““++++” (≥75% = ++++)”.

For “295 (SLAAVSQQL; listed as Homo sapiens) [compound 295]”, which “Peptide exchange” value is on record?
The value was ““+++” (≥50 = +++)”.

How did the “Peptide exchange” value turn out when “296 (FILEPLYKI; listed as Homo sapiens) [compound 296]” was run?
The value was ““++++” (≥75% = ++++)”.

“297 (ILQNGLETL; listed as Homo sapiens) [compound 297]” was tested. Which “Peptide exchange” value did it give?
The value was ““+++” (≥50 = +++)”.

How did the “Peptide exchange” value turn out when “298 (ALTDVILCV; listed as Homo sapiens) [compound 298]” was run?
The value was ““++++” (≥75% = ++++)”.

With “299 (RLLEEEGVSL; listed as Homo sapiens) [compound 299]” as the substance, how does the “Peptide exchange” value read?
Its value is ““+++” (≥50 = +++)”.

For “300 (IVLERNPEL; listed as Homo sapiens) [compound 300]”, which “Peptide exchange” value is on record?
The value was ““+++” (≥50 = +++)”.

“301 (LQFDGIHVV; listed as Homo sapiens) [compound 301]” was tested. Which “Peptide exchange” value did it give?
The value was ““+++” (≥50 = +++)”.

How did the “Peptide exchange” value turn out when “302 (SLAELDEKISA; listed as Homo sapiens) [compound 302]” was run?
The value was ““+++” (≥50 = +++)”.

With “303 (FVWEASHYL; listed as Homo sapiens) [compound 303]” as the substance, how does the “Peptide exchange” value read?
Its value is ““++++” (≥75% = ++++)”.

“304 (ALIRLDDLFL; listed as Homo sapiens) [compound 304]” was tested. Which “Peptide exchange” value did it give?
Its value is ““+++” (≥50 = +++)”.

“305 (AMLAQQMQL; listed as Homo sapiens) [compound 305]” was tested. Which “Peptide exchange” value did it give?
Its value is ““+++” (≥50 = +++)”.

For “306 (AQVALVNEV; listed as Homo sapiens) [compound 306]”, which “Peptide exchange” value is on record?
Its value is ““+++” (≥50 = +++)”.

How did the “Peptide exchange” value turn out when “307 (FLLPVAVKL; listed as Homo sapiens) [compound 307]” was run?
Its value is ““+++” (≥50 = +++)”.

Which “Peptide exchange” value does the source give for “308 (SLLDQIPEM; listed as Homo sapiens) [compound 308]” here?
Its value is ““+++” (≥50 = +++)”.

How did the “Peptide exchange” value turn out when “309 (SLSFVSPSL; listed as Homo sapiens) [compound 309]” was run?
The value was ““+++” (≥50 = +++)”.

With “310 (VMAEAPPGV; listed as Homo sapiens) [compound 310]” as the substance, how does the “Peptide exchange” value read?
The value was ““+++” (≥50 = +++)”.

For “311 (YLHRQVAAV; listed as Homo sapiens) [compound 311]”, which “Peptide exchange” value is on record?
The value was ““+++” (≥50 = +++)”.

Which “Peptide exchange” value does the source give for “314 (LIDDKGTIKL; listed as Homo sapiens) [compound 314]” here?
The value was ““++” (≥20% = ++)”.
